Measured values from patent US20180222961A1 (IMMATICS BIOTECHNOLOGIES, published 2018).
One block for each binder: values may come before it.

How the values were obtained:
[1] = molecular target: T1, HLA-A*24:02 (human); experiment: UV-exchange b2m ELISA; exchange-yield grade
T1 construct: also called peptide-receptive MHC molecules
Procedure, shortened: (§1)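 Binding capacity is graded by how much β2m-containing, stabilised complex survives UV-induced loss of the placeholder peptide. An anti-β2m sandwich ELISA on streptavidin capture, calibrated with refolded monomers (15-500 ng/ml), measures this.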

[2] = molecular target: T2, HLA-A*01:01 (human); experiment: UV-exchange b2m ELISA; exchange-yield grade
T2 construct: also called peptide-receptive MHC molecules
Procedure, shortened: as §1

B2: ETIRSVGYY (peptide)
peptide: ETIRSVGYY
peptide exchange yield [2]: 50 to 75%

B3: LLDEGAMLLY (peptide)
peptide: LLDEGAMLLY
peptide exchange yield [2]: > 75%

B8: RFTTMLSTF (peptide)
peptide: RFTTMLSTF
peptide exchange yield [1]: > 75%

B10: FVDNQYWRY (peptide)
peptide: FVDNQYWRY
peptide exchange yield [2]: 50 to 75%

B15: KYPVHIYRL (peptide)
peptide: KYPVHIYRL
peptide exchange yield [1]: > 75%

B17: NVTMKVVSVLY (peptide)
peptide: NVTMKVVSVLY
peptide exchange yield [2]: 50 to 75%

B18: QLDSNRLTY (peptide)
peptide: QLDSNRLTY
peptide exchange yield [2]: 50 to 75%

B19: KYVAELSLL (peptide)
peptide: KYVAELSLL
peptide exchange yield [1]: > 75%

B20: RWEKTDLTY (peptide)
peptide: RWEKTDLTY
peptide exchange yield [2]: 20 to 50%

B22: LYQPRASEM (peptide)
peptide: LYQPRASEM
peptide exchange yield [1]: 50 to 75%

B23: DMDEEIEAEY (peptide)
peptide: DMDEEIEAEY
peptide exchange yield [2]: 20 to 50%

B25: KYVKVFHQF (peptide)
peptide: KYVKVFHQF
peptide exchange yield [1]: > 75%

Now from value to binder:

peptide exchange yield [1]: 50 to 75%
B1: TAYMVSVAAF (peptide)
peptide: TAYMVSVAAF

peptide exchange yield [2]: 20 to 50%
B4: SPVTSVHGGTY (peptide)
peptide: SPVTSVHGGTY

peptide exchange yield [1]: > 75%
B5: RYLAVVHAVF (peptide)
peptide: RYLAVVHAVF

peptide exchange yield [1]: > 75%
B6: RYGPVFTV (peptide)
peptide: RYGPVFTV

peptide exchange yield [1]: > 75%
B7: SFAPRSAVF (peptide)
peptide: SFAPRSAVF

peptide exchange yield [2]: 20 to 50%
B9: TVTGAEQIQY (peptide)
peptide: TVTGAEQIQY

peptide exchange yield [1]: > 75%
B11: VYNHTTRPL (peptide)
peptide: VYNHTTRPL

peptide exchange yield [1]: > 75%
B12: SYFRGFTLI (peptide)
peptide: SYFRGFTLI

peptide exchange yield [1]: > 75%
B13: SYNEHWNYL (peptide)
peptide: SYNEHWNYL

peptide exchange yield [2]: 20 to 50%
B14: VLLDEGAMLLY (peptide)
peptide: VLLDEGAMLLY

peptide exchange yield [1]: 50 to 75%
B16: VFVSFSSLF (peptide)
peptide: VFVSFSSLF

peptide exchange yield [2]: 20 to 50%
B21: VMEQSAGIMY (peptide)
peptide: VMEQSAGIMY

peptide exchange yield [1]: > 75%
B24: VYTPTLGTL (peptide)
peptide: VYTPTLGTL
